Measured values published in the supplement of paper PMC10724198.
± gives the standard deviation of the averaged measurements.

Columns and labels:
Saccharomyces cerevisiae [1] = experiment: protein stability index of tFT-peptide fusion (C-terminal peptide) (PSI (0-1 scale)); higher = more stable (slower turnover)
Method: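 MPS profiling in S. cerevisiae of the tFT-X12 degron library: putative degron peptides plus stable controls, 12 aa, fused to the C-terminus of a sfGFP-mCherry timer. Cells are FACS-sorted into 8 mCherry/sfGFP bins and deep-sequenced. PSI runs from 0 (unstable) to 1 (stable). Backgrounds are wild type, das1Δ and doa10Δ at 30 °C, and wild type, das1Δ, cdc34-1 and cdc53-1 at 37 °C; 2-3 technical replicates each.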

Saccharomyces cerevisiae [2] = experiment: as above; settings: genetic background: wild type; temperature: 30 C
[3] = genetic background: cdc34-1, temperature: 37 C
[4] = genetic background: cdc53-1, temperature: 37 C
[5] = genetic background: das1 deletion, temperature: 30 C
[6] = genetic background: das1 deletion, temperature: 37 C
[7] = genetic background: doa10 deletion, temperature: 30 C
[8] = genetic background: wild type, temperature: 30 C
[9] = genetic background: wild type, temperature: 37 C
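Note: PSI is a weighted mean of sequencing reads over stability bins, variants kept only with over 10 reads, mCherry proximal and sfGFP distal, peptide attached via GGGS linker.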

Sequence | protein stability index (Saccharomyces cerevisiae [1]; [3]) | protein stability index (Saccharomyces cerevisiae [1]; [4]) | protein stability index (Saccharomyces cerevisiae [1]; [5]) | protein stability index (Saccharomyces cerevisiae [1]; [6]) | protein stability index (Saccharomyces cerevisiae [1]; [7]) | protein stability index (Saccharomyces cerevisiae [1]; [8]) | protein stability index (Saccharomyces cerevisiae [1]; [9]) | protein stability index (Saccharomyces cerevisiae [2])
ASICAFFCWFLV | 0.527 ± 0.035 | 0.58116 ± 0.00042 | 0.457 ± 0.023 | 0.601 ± 0.024 | 0.326 ± 0.0088 | 0.321 ± 0.026 | 0.497 ± 0.013 | 0.419 ± 0.022
FEVLINIWFLSA | 0.272 ± 0.028 | 0.388 ± 0.026 | 0.3 ± 0.042 | 0.422 ± 0.0066 | 0.185 ± 0.011 | 0.19 ± 0.018 | 0.324 ± 0.013 | 0.262 ± 0.019
GGVWSAFAVWVC | 0.188 ± 0.0039 | 0.338 ± 0.027 | 0.288 ± 0.025 | 0.446 ± 0.0074 | 0.0761 ± 0.0025 | 0.0784 ± 0.013 | 0.0546 ± 0.014 | 0.133 ± 0.0023
CAGRQGRERGHT | 0.694 ± 0.03 | 0.7217 ± 0.0042 | 0.658 ± 0.043 | 0.722 ± 0.016 | 0.63499 ± 0.00057 | 0.658 ± 0.013 | 0.717 ± 0.036 | 0.695 ± 0.011
CRCLFVVKNWLS | 0.62 ± 0.039 | 0.706 ± 0.012 | 0.623 ± 0.015 | 0.688 ± 0.04 | 0.147 ± 0.029 | 0.167 ± 0.013 | 0.293 ± 0.06 | 0.262 ± 0.017
VFSRVLSVLLSA | 0.493 ± 0.011 | 0.514 ± 0.033 | 0.405 ± 0.029 | 0.5429 ± 0.0039 | 0.2377 ± 0.0015 | 0.282 ± 0.027 | 0.457 ± 0.024 | 0.386 ± 0.0071
YPFIPLIVCGFF | 0.401 ± 0.028 | 0.41 ± 0.0085 | 0.344 ± 0.024 | 0.4747 ± 0.00094 | 0.395 ± 0.019 | 0.338 ± 0.018 | 0.448 ± 0.01 | 0.404 ± 0.02
WLVVGGVVLLVV | 0.246 ± 0.029 | 0.28548 ± 0.00015 | 0.213 ± 0.033 | 0.395 ± 0.009 | 0.175 ± 0.0046 | 0.197 ± 0.026 | 0.37 ± 0.0047 | 0.252 ± 0.0089
ALVWYSLSIIVN | 0.0193 ± 0.0028 | 0.0815 ± 0.086 | 0.0515 ± 0.03 | 0.0682 ± 0.0034 | 0.0397 ± 0.0011 | 0.0403 ± 0.021 | 0.0736 ± 0.04 | 0.205 ± 0.064
YQHSRSGRNKII | 0.591 ± 0.12 | 0.724 ± 0.033 | 0.652 ± 0.028 | 0.716 ± 0.021 | 0.109 ± 0.0063 | 0.117 ± 0.034 | 0.122 ± 0.035 | 0.235 ± 0.012
FTRWLVYCTPLC | 0.554 ± 0.033 | 0.569 ± 0.0098 | 0.46 ± 0.011 | 0.586 ± 0.0022 | 0.437 ± 0.029 | 0.441 ± 0.012 | 0.567 ± 0.013 | 0.516 ± 0.024
FHRSVVRLWLRN | 0.49 ± 0.06 | 0.619 ± 0.024 | 0.604 ± 0.02 | 0.679 ± 0.0092 | 0.114 ± 0.0044 | 0.104 ± 0.031 | 0.181 ± 0.066 | 0.301 ± 0.041
VFCSVGVSLFFG | 0.335 ± 0.014 | 0.496 ± 0.027 | 0.289 ± 0.04 | 0.5138 ± 0.0017 | 0.258 ± 0.015 | 0.284 ± 0.023 | 0.5118 ± 0.0026 | 0.411 ± 0.021
VFWLLVAVLRYW | 0.224 ± 0.018 | 0.247 ± 0.0056 | 0.243 ± 0.023 | 0.354 ± 0.0044 | 0.263 ± 0.011 | 0.222 ± 0.016 | 0.325 ± 0.013 | 0.307 ± 0.06
LIVCVKAITIVS | 0.0266 ± 0.0046 | 0.0452 ± 0.011 | 0.0357 ± 0.0096 | 0.0917 ± 0.019 | 0.0226 ± 0.0029 | 0.0194 ± 0.0031 | 0.0521 ± 0.031 | 0.0363 ± 0.015
FYPLPASIPDFA | 0.695 ± 0.025 | 0.7541 ± 0.0025 | 0.67 ± 0.017 | 0.74197 ± 5.2e-05 | 0.675 ± 0.022 | 0.6686 ± 0.0026 | 0.72 ± 0.011 | 0.7216 ± 0.0018
GGSHVWKFYRNF | 0.702 ± 0.09 | 0.7673 ± 0.0011 | 0.662 ± 0.031 | 0.767 ± 0.034 | 0.224 ± 0.0086 | 0.285 ± 0.027 | 0.5523 ± 0.0027 | 0.4225 ± 0.0038
LSFFICSFFFVL | 0.514 ± 0.045 | 0.556 ± 0.014 | 0.456 ± 0.03 | 0.5798 ± 0.0013 | 0.344 ± 0.006 | 0.361 ± 0.021 | 0.5113 ± 0.0012 | 0.408 ± 0.013
KSEKTYTYQVIQ | 0.682 ± 0.022 | 0.749 ± 0.027 | 0.622 ± 0.023 | 0.7159 ± 0.0055 | 0.329 ± 0.031 | 0.37 ± 0.027 | 0.5757 ± 0.005 | 0.453 ± 0.0059
FRVFYSFLLCLS | 0.194 ± 0.0057 | 0.189 ± 0.01 | 0.228 ± 0.015 | 0.307 ± 0.0087 | 0.178 ± 0.0048 | 0.162 ± 0.0088 | 0.219 ± 0.0085 | 0.22 ± 0.0028
FCIIVFYIFVGI | 0.451 ± 0.061 | 0.506 ± 0.078 | 0.342 ± 0.027 | 0.48 ± 0.077 | 0.323 ± 0.024 | 0.333 ± 0.022 | 0.486 ± 0.042 | 0.382 ± 0.041
WYVRVYVLSVES | 0.136 ± 0.021 | 0.176 ± 0.028 | 0.186 ± 0.029 | 0.3115 ± 0.0015 | 0.137 ± 0.0079 | 0.168 ± 0.018 | 0.264 ± 0.022 | 0.237 ± 0.019
DVHPLFYCIPVY | 0.0345 ± 0.018 | 0.0286 ± 0.016 | 0.101 ± 0.037 | 0.0568 ± 0.014 | 0.0881 ± 0.0095 | 0.101 ± 0.02 | 0.0474 ± 0.03 | 0.13922 ± 3.4e-05
MSQVRYQRATRA | 0.657 ± 0.074 | 0.676 ± 0.044 | 0.608 ± 0.0071 | 0.692 ± 0.0087 | 0.526 ± 0.021 | 0.535 ± 0.023 | 0.648 ± 0.011 | 0.54 ± 0.067
VWFGGLAVCCGG | 0.398 ± 0.024 | 0.405 ± 0.037 | 0.303 ± 0.025 | 0.4815 ± 0.0022 | 0.2709 ± 0.0023 | 0.303 ± 0.03 | 0.43156 ± 0.00042 | 0.396 ± 0.042
SPLHGFLFLVLL | 0.395 ± 0.03 | 0.445 ± 0.0069 | 0.403 ± 0.025 | 0.523 ± 0.012 | 0.528 ± 0.024 | 0.403 ± 0.028 | 0.496 ± 0.021 | 0.424 ± 0.021
LFVFVISSSSFP | 0.442 ± 0.0068 | 0.539 ± 0.035 | 0.321 ± 0.025 | 0.553 ± 0.0059 | 0.291 ± 0.022 | 0.306 ± 0.025 | 0.503 ± 0.015 | 0.395 ± 0.04
LFPLFTLIFVHL | 0.224 ± 0.016 | 0.212 ± 0.017 | 0.265 ± 0.023 | 0.4169 ± 0.0011 | 0.119 ± 0.025 | 0.115 ± 0.019 | 0.1696 ± 0.00078 | 0.1989 ± 0.00028
VLGLYSLLLSFF | 0.567 ± 0.068 | 0.6627 ± 0.0015 | 0.524 ± 0.034 | 0.644 ± 0.016 | 0.277 ± 0.013 | 0.305 ± 0.0096 | 0.4532 ± 0.0012 | 0.337 ± 0.007
VFHMFGWCGGAR | 0.728 ± 0.015 | 0.8 ± 0.0098 | 0.673 ± 0.012 | 0.77 ± 0.026 | 0.678 ± 0.042 | 0.673 ± 0.028 | 0.7518 ± 0.0011 | 0.764 ± 0.071
